{
  "source": "patent US6406886",
  "test_in_all_cases": "cell-based or functional assay",
  "key": {"Rac1": {"biological_target": "Rac1"}, "Ran": {"biological_target": "Ran"}, "[1]": {"biological_target": "human Ha-Ras (1st to 189th residues) (human) (UniProt P01112)", "sequence (P01112 whole entry, form in doubt)": "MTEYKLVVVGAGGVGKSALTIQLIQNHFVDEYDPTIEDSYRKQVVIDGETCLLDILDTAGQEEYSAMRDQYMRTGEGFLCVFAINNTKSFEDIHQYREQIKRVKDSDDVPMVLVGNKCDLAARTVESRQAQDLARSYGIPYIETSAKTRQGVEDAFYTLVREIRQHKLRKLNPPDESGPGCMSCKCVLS"}, "[2]": {"biological_target": "human Rap1A (Glu63) (1st to 184th residues) (human) (UniProt P62834)", "sequence (P62834 whole entry)": "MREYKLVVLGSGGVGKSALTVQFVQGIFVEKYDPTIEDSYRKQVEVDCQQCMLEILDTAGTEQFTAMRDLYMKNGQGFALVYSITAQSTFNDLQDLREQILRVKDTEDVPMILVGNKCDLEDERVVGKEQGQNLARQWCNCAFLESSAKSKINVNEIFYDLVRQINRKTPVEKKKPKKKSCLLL"}, "[3]": {"biological_target": "human RhoA (1st to 193 residues) GST fusion protein (human) (UniProt P61586)", "sequence (P61586 whole entry, form in doubt, the tested form may be a part)": "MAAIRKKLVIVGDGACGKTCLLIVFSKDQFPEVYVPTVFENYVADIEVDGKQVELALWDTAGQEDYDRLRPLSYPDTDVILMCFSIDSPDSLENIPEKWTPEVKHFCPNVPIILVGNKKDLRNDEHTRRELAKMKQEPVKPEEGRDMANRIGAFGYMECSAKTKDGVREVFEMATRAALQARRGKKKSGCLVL"}, "[4]": {"biological_target": "yeast Rsr1 (1st to 272nd residues) (yeast) (UniProt P13856)", "sequence (P13856 whole entry, form in doubt)": "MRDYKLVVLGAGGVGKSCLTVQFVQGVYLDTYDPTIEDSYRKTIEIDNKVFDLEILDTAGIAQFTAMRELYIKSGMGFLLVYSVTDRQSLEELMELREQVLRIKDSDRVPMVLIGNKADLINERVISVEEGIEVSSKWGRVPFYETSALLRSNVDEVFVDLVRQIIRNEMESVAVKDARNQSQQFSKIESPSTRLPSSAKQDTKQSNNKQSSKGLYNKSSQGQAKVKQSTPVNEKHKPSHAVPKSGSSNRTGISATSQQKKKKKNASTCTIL"}},
  "data": [
    {"binder": "Span-N/GST fusion protein (protein, not shown: a dimerising Fc or GST) MYNNQEAGAAFMQFLTLLGDVVRLKGFESYRAQLDTKTDSTGTHSLYTTYQDHEIMFHVSTMLPYTPNNQQQLLRKRHIGNDIVTIVFQEPGSKPFCPTTIRSHFQHVFLVVRAHAPCTPHTSYRVAVSRTQDTPAFGPALPEGGGPFAANADFRAFLLAKALNGEQAAGHARQFHAMATRTRQQYLQDL", "values": [
      {"measurement": "Stimulation (times) of GTPase activity", "setting": "Rac1", "result": 0, "unit": "times"},
      {"measurement": "EC16 (µg/ml), activation of Ran GTPase", "setting": "Ran", "result": 25, "unit": "µg/mL"},
      {"measurement": "Stimulation (times) of GTPase activity", "setting": "[1]", "result": 0.3, "unit": "times"},
      {"measurement": "Stimulation (times) of GTPase activity", "setting": "[2]", "result": 6, "unit": "times"},
      {"measurement": "Stimulation (times) of GTPase activity", "setting": "[3]", "result": 0.6, "unit": "times"},
      {"measurement": "Stimulation (times) of GTPase activity", "setting": "[4]", "result": 16, "unit": "times"}
    ]}
  ]
}
